# Where “and” joins values, the source holds several entries; their conditions need not be identical. Equal values may be shown once.
# Tests used:
# fibronectin = target: T1, fibronectin (Homo sapiens, UniProt P02751); assay: Western blot for fibronectin on granzyme B-treated SMCs; assay type: biochemical; details: SMCs treated with granzyme B for 24 hours
# T1 construct: endogenous in cells; host or cells: human coronary artery smooth muscle cells
# Description: (§1) Extracellular proteins from SMC cultures were biotinylated and incubated with granzyme B. The supernatant was collected at 2, 4 and 24 hours after treatment, and the entire insoluble extracellular protein preparation collected at 24 hours. Extracellular proteins were visualized by Western blot for biotin. Western blot for beta-actin confirmed that the extracellular protein preparation was devoid of intercellular proteins. Western blots for fibronectin, phosphorylated FAK (p-FAK), and FAK were also performed on lysates of SMC treated with granzyme B. In the collected insoluble proteins, four protein bands between approximately 50-70 kDa and approximately 236 kDa disappeared 24 hours after treatment with granzyme B and cleavage of fragments approximately 25-39 kDa were evident in the matrix at this same time point. Further, the six proteins and/or cleavage fragments ranging in molecular weight from approximately 29-148 kDa were eluted into the supernatant as early as two hours after granzyme B treatment. […]
# (§2) To identify extracellular proteins that are cleaved by granzyme B, western blots for fibronectin, collagen, and vitronectin on lysates from untreated and granzyme B-treated SMCs were performed. […] In the supernatants of granzyme B-treated SMCs at 24 hours, a fibronectin cleavage product was detected. […]
# [1] = test system: human insoluble skin (Sk) elastin; assay: in vitro granzyme B elastin binding assay (skin elastin); details: 50, 100, 300 ng granzyme B; 15 μg skin elastin; PBS, 3 hours, room temperature
# Description: (§3) An in vitro granzyme B elastin binding assay was conducted in the following manner. Granzyme B at 50, 100 and 300 ng was incubated with 15 μg of human insoluble skin (Sk) and aortic (Ao) elastin (Elastin Products Company™, Owensville, Mo.) in PBS for three hours at room temperature. The samples were centrifuged at 1000×g at room temperature for three minutes and the insoluble elastin collected in the pellet. The supernatants, which contained unbound granzyme B, were denatured with SDS loading buffer and run on a 10% SDS-PAGE gel. Granzyme B was detected by Western blot. Each gel contained three lanes: a first lane related to a sample containing granzyme B in the absence of elastin; a second lane related to the samples containing granzyme B and human insoluble skin elastin; and a third lane related to the sample containing granzyme B and aortic elastin. […] This phenomenon was dose-dependent and not restricted to the type of elastin used (i.e. skin elastin or aortic elastin).
# [2] = test system: human insoluble aortic (Ao) elastin; assay: in vitro granzyme B elastin binding assay (aortic elastin); details: 50, 100, 300 ng granzyme B; 15 μg aortic elastin; PBS, 3 hours, room temperature
# Description: as §3
# fibrillin-1 = target: T2, fibrillin-1 (Homo sapiens, UniProt P35555); assay: Fibrillin cleavage on SMC extracellular matrix by Western blot; assay type: biochemical; details: Granzyme B (80 nm) on ECM, 24 hours, room temperature
# T2 construct: cells were lysed with NH4OH so that the intact extracellular matrix (ECM) remained on the plate; endogenous in cells; host or cells: human coronary artery smooth muscle cells (decellularised ECM)
# T2 sequence (P35555 45-2871): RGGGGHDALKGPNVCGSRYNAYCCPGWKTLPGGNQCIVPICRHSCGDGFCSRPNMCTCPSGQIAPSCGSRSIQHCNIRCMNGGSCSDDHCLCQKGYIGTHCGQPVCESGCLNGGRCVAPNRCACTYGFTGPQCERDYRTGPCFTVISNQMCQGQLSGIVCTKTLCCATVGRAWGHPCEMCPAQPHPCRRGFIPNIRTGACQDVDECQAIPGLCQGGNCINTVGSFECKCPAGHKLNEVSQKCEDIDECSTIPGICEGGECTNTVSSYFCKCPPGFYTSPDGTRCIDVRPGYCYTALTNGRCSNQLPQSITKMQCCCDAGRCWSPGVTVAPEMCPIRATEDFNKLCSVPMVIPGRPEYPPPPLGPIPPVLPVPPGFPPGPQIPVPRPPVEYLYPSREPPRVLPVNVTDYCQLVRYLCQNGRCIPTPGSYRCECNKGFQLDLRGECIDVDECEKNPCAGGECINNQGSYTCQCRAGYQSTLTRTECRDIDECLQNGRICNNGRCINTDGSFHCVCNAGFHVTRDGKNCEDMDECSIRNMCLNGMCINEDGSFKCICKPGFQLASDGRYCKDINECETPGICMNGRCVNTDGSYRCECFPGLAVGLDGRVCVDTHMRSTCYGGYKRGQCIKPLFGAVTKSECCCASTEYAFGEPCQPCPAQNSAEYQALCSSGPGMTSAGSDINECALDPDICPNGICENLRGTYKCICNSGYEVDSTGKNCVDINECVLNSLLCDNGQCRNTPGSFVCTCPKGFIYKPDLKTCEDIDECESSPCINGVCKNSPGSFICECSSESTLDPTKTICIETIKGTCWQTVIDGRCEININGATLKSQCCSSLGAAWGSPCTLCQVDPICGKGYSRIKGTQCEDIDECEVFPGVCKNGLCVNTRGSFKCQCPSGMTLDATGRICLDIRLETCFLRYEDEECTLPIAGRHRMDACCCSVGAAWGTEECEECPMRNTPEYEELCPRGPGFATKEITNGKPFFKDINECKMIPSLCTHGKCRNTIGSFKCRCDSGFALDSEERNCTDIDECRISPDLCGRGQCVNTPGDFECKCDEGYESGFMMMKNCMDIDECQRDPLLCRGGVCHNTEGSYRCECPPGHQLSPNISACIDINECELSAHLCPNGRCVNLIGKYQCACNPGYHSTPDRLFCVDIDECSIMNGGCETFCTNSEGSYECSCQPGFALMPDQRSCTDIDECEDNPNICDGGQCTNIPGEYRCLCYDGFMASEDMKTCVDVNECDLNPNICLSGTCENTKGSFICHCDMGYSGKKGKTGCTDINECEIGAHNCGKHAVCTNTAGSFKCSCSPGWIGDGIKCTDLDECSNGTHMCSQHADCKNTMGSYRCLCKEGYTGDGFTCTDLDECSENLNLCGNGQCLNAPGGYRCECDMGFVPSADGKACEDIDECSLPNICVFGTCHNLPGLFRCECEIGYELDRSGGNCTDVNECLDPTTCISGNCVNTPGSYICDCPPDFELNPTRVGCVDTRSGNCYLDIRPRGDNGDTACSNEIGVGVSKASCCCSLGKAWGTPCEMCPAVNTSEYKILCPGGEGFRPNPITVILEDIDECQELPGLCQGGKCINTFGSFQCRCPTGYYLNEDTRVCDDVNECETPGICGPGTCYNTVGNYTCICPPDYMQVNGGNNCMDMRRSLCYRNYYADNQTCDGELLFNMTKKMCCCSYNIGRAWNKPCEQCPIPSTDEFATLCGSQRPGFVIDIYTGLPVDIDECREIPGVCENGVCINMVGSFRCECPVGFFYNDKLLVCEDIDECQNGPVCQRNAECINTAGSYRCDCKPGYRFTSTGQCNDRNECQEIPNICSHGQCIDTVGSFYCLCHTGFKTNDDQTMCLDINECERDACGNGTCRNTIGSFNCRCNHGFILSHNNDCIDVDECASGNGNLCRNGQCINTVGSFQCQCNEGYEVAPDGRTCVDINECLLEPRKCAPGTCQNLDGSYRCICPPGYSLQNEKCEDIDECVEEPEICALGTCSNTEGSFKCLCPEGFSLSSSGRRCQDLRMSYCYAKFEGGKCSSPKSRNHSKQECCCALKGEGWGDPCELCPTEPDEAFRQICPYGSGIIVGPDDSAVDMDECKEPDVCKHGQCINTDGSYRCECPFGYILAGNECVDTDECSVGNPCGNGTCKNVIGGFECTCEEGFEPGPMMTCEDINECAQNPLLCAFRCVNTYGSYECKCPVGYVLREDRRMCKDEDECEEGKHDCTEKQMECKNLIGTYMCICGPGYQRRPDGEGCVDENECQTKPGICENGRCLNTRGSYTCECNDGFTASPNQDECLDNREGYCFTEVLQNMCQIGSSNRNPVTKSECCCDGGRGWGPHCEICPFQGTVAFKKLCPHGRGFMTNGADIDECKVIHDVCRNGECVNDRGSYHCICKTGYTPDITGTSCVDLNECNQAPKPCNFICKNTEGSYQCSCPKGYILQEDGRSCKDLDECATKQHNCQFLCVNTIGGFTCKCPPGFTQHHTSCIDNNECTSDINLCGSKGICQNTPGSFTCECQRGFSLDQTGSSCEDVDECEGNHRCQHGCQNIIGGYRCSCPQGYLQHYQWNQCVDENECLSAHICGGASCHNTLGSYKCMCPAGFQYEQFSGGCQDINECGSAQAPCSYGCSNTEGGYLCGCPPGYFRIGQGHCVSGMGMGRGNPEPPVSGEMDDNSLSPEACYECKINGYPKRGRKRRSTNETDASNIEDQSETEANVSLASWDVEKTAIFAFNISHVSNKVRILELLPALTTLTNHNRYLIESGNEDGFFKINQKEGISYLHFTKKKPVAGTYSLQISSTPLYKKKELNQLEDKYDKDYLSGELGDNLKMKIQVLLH
# Description: Human coronary artery smooth muscle cells were cultured to confluency and serum starved for 48 hours at which time cells were lysed with NH4OH so that the intact extracellular matrix (ECM) remained on the plate. Granzyme B (80 nm) was incubated on the ECM for 24 hours at room temperature. Supernatants (containing cleaved ECM) and ECM still attached to the plate were collected and assessed for fibrillin cleavage by Western blot. The arrows in FIG. 7 indicate fibrillin-1 cleavage fragments.
# vitronectin = assay: Western blot for vitronectin on granzyme B-treated SMCs; assay type: biochemical, human; details: SMCs treated with granzyme B for 24 hours
# Description: as §1, §2
# [3] = test system: human coronary artery smooth muscle cells (SMC) matrix; assay: Cleavage of biotinylated SMC extracellular proteins; assay type: biochemical; details: supernatant at 2, 4, 24 hours; insoluble matrix at 24 hours
# Description: Extracellular proteins from SMC cultures were biotinylated and incubated with granzyme B. The supernatant was collected at 2, 4 and 24 hours after treatment, and the entire insoluble extracellular protein preparation collected at 24 hours. Extracellular proteins were visualized by Western blot for biotin. Western blot for beta-actin confirmed that the extracellular protein preparation was devoid of intercellular proteins. Western blots for fibronectin, phosphorylated FAK (p-FAK), and FAK were also performed on lysates of SMC treated with granzyme B. In the collected insoluble proteins, four protein bands between approximately 50-70 kDa and approximately 236 kDa disappeared 24 hours after treatment with granzyme B and cleavage of fragments approximately 25-39 kDa were evident in the matrix at this same time point. Further, the six proteins and/or cleavage fragments ranging in molecular weight from approximately 29-148 kDa were eluted into the supernatant as early as two hours after granzyme B treatment. To ensure that the SMC extracellular protein preparations used were devoid of intracellular proteins, Western blotting for beta-actin was performed on the collected supernatant and extracellular proteins. Beta-actin was apparent in SMC lysates (positive control) but was absent from matrix and supernatant preparations.
# collagen IV = assay: Western blot for collagen on granzyme B-treated SMCs; assay type: biochemical, human; details: SMCs treated with granzyme B for 24 hours
# Description: as §1, §2
# [4] = test system: skin elastin (3H-elastin); assay: 3H-elastin cleavage assay (skin elastin); assay type: biochemical
# Description: (§4) FIG. 6 Granzyme B degrades elastin in vitro. Granzyme B was incubated with ^3H-elastin for 7 days at room temperature. Elastase was incubated with ^3H-elastin for 2 hours. Supernatants containing the soluble elastin cleavage fragments were collected and counted. Data is represented as fold increase in radioactivity over the control (elastin only). (n=2).
# (§5) Tritiated elastin was prepared with the modifications as described in Banda, M. J. and Werb, Z. (1981) Biochem, J. 193: 589-605 and Gordon, S., Werb, Z. and Cohn, Z. A. (1976) in In Vitro Methods in Cell Mediated and Tumor Immunity, eds. Bloom, B. R. and David, J. R. (Academic Press, New York), pages 349-350. 1 mg of skin or aortic elastin was diluted in 1 ml dH2O and pHed to 9.2. 1 mCi NaB3H4 (PerkinElmer™, Waltham Mass.) and 2 mg of […] (Sigma™, St. Louis, Mo.) was added. After 2 hours of incubation, the pH was adjusted to 3.0 and the elastin was incubated for an additional 30 minutes. The elastin was centrifuged for 3 minutes at 5000×g and the pellet was repeatedly washed to remove excess NaB3H4. […] The radioactivity of the soluble, cleaved elastin fragments in the supernatant was counted in Ready Safe Scintillation Fluid (Beckman-Coulter™, Fullerton, Calif.). The radioactivity of the cleaved, soluble elastin fragments was 4.8 times and 2.7 times higher than background for skin and aortic elastin, respectively (FIG. 6).
# [5] = test system: aortic elastin (3H-elastin); assay: 3H-elastin cleavage assay (aortic elastin); assay type: biochemical
# Description: as §4, §5
# [6] = test system: apoE-KO and GrB/apoE-DKO mice; assay: ApoE-KO model of angiotensin-II-induced AAA (Examples 8-14); assay type: in vivo, mouse; details: for survival to 28 days: chronic angII infusion 1000 ng/min/kg
# From the text: All animal protocols were approved by the University of British Columbia (UBC) Animal Care Committee. C57B1/6 mice, C57B1/6-ApoE−/− and C57B1/6-GrB−/− mice were obtained from Jackson Laboratories (Bar Harbor, Me.) ([…] et al. 1992. Proc Natl. Acad Sci 89: 4471-4475; HEUSEL et al 1994 Cell 76:977-987). The C57B1/6-ApoE−/− x GrB−/− double knockout (ApoE/GrB-DKO) mice were generated by crossing the C57B1/6-ApoE−/− and C57B1/6-GrB−/− mouse strains. […] The pups were weaned at 3 weeks of age and then maintained on a 12-hour day and night cycle with food and water provided ad libitum.
# ALZET™ osmotic pumps (DURECT Corporation, Cupertino, Calif.) are miniature, implantable pumps commonly used for research in mice and rats. These infusion pumps continuously deliver drugs and other test agents at controlled rates from one day to four weeks without the need for external connections or frequent handling. ALZET™ pumps operate by osmotic displacement. An empty reservoir within the core of the pump is filled with the drug solution to be delivered. Due to the presence of a high concentration of salt in a chamber surrounding the reservoir, water enters the pump through its outer surface. This entry of water increases the volume in the salt chamber, causing compression of the flexible reservoir and delivery of the drug solution into the animal.
# Mice were weighed immediately before calculating doses, and the mean weight of mice per group was used. Since mice on a regular diet gain 0.5 g of weight per week, the drug dose was calculated based on the projected mid weight of the experiment (so mice were slightly overdosed for the first two weeks and under-dosed for the final two weeks). The dose was calculated based on the pump fill volume, mean pumping rate, and the midpoint weight of the mice to achieve a value of 1.44 mg/kg/day, (equivalent to 1000 ng/min/kg). To ensure accurate filling, pumps were weighed before and after filling, and a value of 1 mg equal to 1 μL was used when assessing fill volume. […] All pumps and solutions were worked with under sterile conditions. […] All test tubes were placed in the incubator at 37° C. for 24 hours prior to implantation.
# On day 1, mice were brought into the GEM micro-procedure room Animals were anesthetised with gaseous anaesthetic at a flow rate of 1.5 L per minute of oxygen with 2.5% of isoflurane delivered via a Baines system using a calibrated tabletop anaesthetic machine, administered from a rodent nose cone. Depth of anaesthesia was monitored by toe pinch response and breathing. Eyes were protected using ocular lubricant. The back of the mouse was shaved, and the legs were taped down. The back of the mouse was then sterilized with 70% ethanol, followed by iodine. The mouse was then moved to the surgical table, so that the dissecting microscope could be utilised.
# Under sterile conditions, a lateral incision was made below the scapula, and the skin was blunt dissected from the subcutaneous layer, making a hole large enough to fit the minipump. The minipump was inserted with the flow regulator angled towards the head. Incisions were closed with 2-4 dissolving discontinuous sutures. Isoflurane was then shut off, allowing the mouse to breathe pure oxygen, and a dose of buprenorphine was administered for pain relief After 1 hour, when the mice had recovered from anaesthesia, they were moved back to the animal holding room. The mice were monitored daily for the remainder of the experiment.
# Blood was collected by cardiac puncture following CO2 euthanization.
# [7] = test system: C57, apoE-KO and GrB/apoE-DKO mice; assay: Angiotensin-II infusion aortic dissection model (Example 7); assay type: in vivo, mouse
# Description: Aortic dissections were induced with 28 day infusion of 2000 ng/kg/min angiotensin-II dissolved in saline, or placebo, through an ALZET™ osmotic pump (model 1004). The pumps were implanted into the subcutaneous space in the upper dorsal regions through a small incision site at the back of the neck of the anesthetized mouse, and the incision was closed with dissolving sutures. The mice were euthanized by carbon dioxide inhalation followed by cardiac puncture 28-days post implantation. The thoracic cavity and abdominal cavity were then opened, and the circulation perfused with PBS via a cannula placed in the left ventricle, with fluid drained from a severed right atria. Following PBS perfusion, fresh 10% formalin was perfused in the same manner. The heart, kidneys and entire aorta to the iliac bifurcation was then carefully dissected from the animal, and photographed en masse.
# Aortic dissections were defined by blood accumulation between the media and outer aortic wall. Mice that were found dead without any preceding signs of suffering were defined as sudden death.
substance,measurement,setting,value
"granzyme B: serine protease; the patent's target enzyme, tested for binding and cleavage of extracellular matrix proteins",fibronectin in SMC lysates (Western blot),fibronectin,reduction in the total amount of fibronectin
same,unbound granzyme B band in supernatant (Western blot) versus sample without elastin,[1],dramatically less pronounced
same,unbound granzyme B band in supernatant (Western blot),[2],No band appeared
same,fibrillin-1 cleavage (Western blot),fibrillin-1,cleaves fibrillin-1
same,cleavage of vitronectin,vitronectin,no cleavage
same,cleavage of extracellular proteins (Western blot for biotin),[3],induced a cleavage of a number of extracellular proteins
same,cleavage of collagen IV,collagen IV,no cleavage
same,"radioactivity of the cleaved, soluble elastin fragments","[4]; skin 3H-elastin 0.15 mg, granzyme B 0.75 μg added 5 times, room temperature, 7 days",4.8 times higher than background
same,"radioactivity of the cleaved, soluble elastin fragments","[5]; aortic 3H-elastin 0.15 mg, granzyme B 0.75 μg added 5 times, room temperature, 7 days",2.7 times higher than background
"angII: angiotensin II from Sigma, infused by osmotic minipump to induce aneurysm and dissection in mice (DRVYIHPF; Angiotensin-2; UniProt P01019 25-32, looked up)",medial thickness of thoracic and abdominal aortas versus saline,"[6]; 28 days, significant only for apoE-KO thoracic samples (p<0.05)",trend for medial thickness to increase
same,survival to 28 days,[6]; GrB/apoE-DKO mice (n=15),86.67%
same,Weight change,[6]; GrB/apoE-DKO mice surviving to 28 days,-0.3 g
same,n at 28 days,"[6]; GrB/apoE-DKO mice, n at 0 days 15",13
same,mice with small abdominal aortic aneurysm (AAA),"[6]; GrB/apoE-DKO surviving mice, day 28",30%
same,survival to 28 days,[6]; apoE-KO mice (n=16),56.25% and 53%
same,Weight change,[6]; apoE-KO mice surviving to 28 days,1.0 g
same,abdominal aortic lumen area versus saline,"[6]; apoE-KO mice, 28 days, one-way ANOVA/Dunn's, p<0.05",statistically significant increase
same,n at 28 days,"[6]; apoE-KO mice, n at 0 days 16",9
same,gross pathological outcome,"[6]; apoE-KO surviving mice, day 28",developed aortic dissections
same,percent aortic root lumen covered by plaque,"[6]; either genotype, angII versus saline, 28 days, p>0.05",No significant difference
same,sudden death before the 28-day time point,"[7]; apoE-KO mice, 2000 ng/kg/min infusion, four of eight",50%
same,mice that developed aortic dissections or succumbed to sudden death,"[7]; apoE-KO mice, 2000 ng/kg/min, 28 day infusion, seven of eight",87.5%
same,aortic dissections,"[7]; wildtype and GrB/apoE-DKO mice, 2000 ng/kg/min, 28 day infusion",none developed aortic dissections
same,sudden death,"[7]; wildtype mice, 2000 ng/kg/min, 28 day infusion",zero of six
elastase,radioactivity increase over background,"[4]; skin elastin, 25 μg elastase, 2 hours, positive control",14.9 fold
same,radioactivity increase over background,"[5]; aortic elastin, 25 μg elastase, 2 hours, positive control",7.7 fold
